According to PMC8068644:

Assay: immunoblot, full-length as % of total β1AR, CHO-Pro5
Conditions: glycan lost

β1-adrenergic receptor (β1AR): S41A
other: N-terminal proteolytic cleavage, other: decrease in full-length β1AR (control: WT-β1AR): 56.8%

β1-adrenergic receptor (β1AR): S37A
other: N-terminal proteolytic cleavage, other: decrease in full-length β1AR (control: WT-β1AR): 21.7%

β1-adrenergic receptor (β1AR): S41A in 31H32A/52A53A backbone
other: N-terminal proteolytic cleavage, other: decrease in full-length β1AR (control: 31H32A/52A53A-β1AR): 69.7%
